# PMC10397247
# B1: P12mSN (peptide)
# chain: DKNEQLKEKISELKEKIEQLKEENQSLEY
# B2: 4H568-bA (peptide)
# chain: DEIAQLKQEIAELEQKNAELEWKNAQLKQ
# B3: 4H2883-bH (peptide)
# chain: DKIQELKKKIEELKREIWELEKENQELER
# Tests used:
# Experiment in all cases: two-hybrid library CCNG1;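 further: natural log of median RNA to DNA barcode read ratio; higher means stronger binding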
# P6mSN = molecular target: T1, P6mSN
# T1 chain: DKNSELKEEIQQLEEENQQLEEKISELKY
# P5mSN = molecular target: T2, P5mSN
# T2 chain: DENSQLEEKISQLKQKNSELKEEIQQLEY
# P7mSN = molecular target: T3, P7mSN
# T3 chain: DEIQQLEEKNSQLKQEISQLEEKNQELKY
# P9mSN = molecular target: T4, P9mSN
# T4 chain: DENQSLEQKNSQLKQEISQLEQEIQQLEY
# P1mSN = molecular target: T5, P1mSN
# T5 chain: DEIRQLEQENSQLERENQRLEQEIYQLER
# P8mSN = molecular target: T6, P8mSN
# T6 chain: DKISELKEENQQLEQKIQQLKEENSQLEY
# P12mSN = molecular target: T7, P12mSN
# T7 chain: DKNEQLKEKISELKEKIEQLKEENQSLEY
# P4mSN = molecular target: T8, P4mSN
# T8 chain: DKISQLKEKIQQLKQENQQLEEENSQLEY
# P3mSN = molecular target: T9, P3mSN
# T9 chain: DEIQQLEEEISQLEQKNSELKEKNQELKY
# P2mSN = molecular target: T10, P2mSN
# T10 chain: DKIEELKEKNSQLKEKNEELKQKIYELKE
# 4H687-bA = molecular target: T11, 4H687-bA
# T11 chain: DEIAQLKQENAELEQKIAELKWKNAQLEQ
# 4H754-bA = molecular target: T12, 4H754-bA
# T12 chain: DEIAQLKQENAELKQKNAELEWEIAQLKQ
# 4H967-bA = molecular target: T13, 4H967-bA
# T13 chain: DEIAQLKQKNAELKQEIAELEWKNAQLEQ
# 4H918-bA = molecular target: T14, 4H918-bA
# T14 chain: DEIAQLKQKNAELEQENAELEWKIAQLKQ
# 4H72-bA = molecular target: T15, 4H72-bA
# T15 chain: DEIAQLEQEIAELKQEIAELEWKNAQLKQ
# 4H908-bA = molecular target: T16, 4H908-bA
# T16 chain: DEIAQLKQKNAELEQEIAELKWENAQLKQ
# 4H850-bN = molecular target: T17, 4H850-bN
# T17 chain: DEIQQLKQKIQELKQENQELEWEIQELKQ
# 4H717-bA = molecular target: T18, 4H717-bA
# T18 chain: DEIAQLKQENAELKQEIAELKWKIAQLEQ
# 4H607-bA = molecular target: T19, 4H607-bA
# T19 chain: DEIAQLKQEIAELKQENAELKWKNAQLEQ
# 4H953-bA = molecular target: T20, 4H953-bA
# T20 chain: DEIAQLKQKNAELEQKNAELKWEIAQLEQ
# 4H797-bA = molecular target: T21, 4H797-bA
# T21 chain: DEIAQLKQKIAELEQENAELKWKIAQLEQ
# 4H883-bA = molecular target: T22, 4H883-bA
# T22 chain: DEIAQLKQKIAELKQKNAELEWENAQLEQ
# P5A-bA = molecular target: T23, P5A-bA
# T23 chain: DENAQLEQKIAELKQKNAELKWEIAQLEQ
# 4H568-bA = molecular target: T24, 4H568-bA
# T24 chain: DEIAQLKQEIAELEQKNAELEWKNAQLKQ
# O10-bS = molecular target: T25, O10-bS
# T25 chain: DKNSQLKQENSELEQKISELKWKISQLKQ
# 4H2937-bH = molecular target: T26, 4H2937-bH
# T26 chain: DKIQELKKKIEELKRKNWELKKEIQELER
# 4H491-bH = molecular target: T27, 4H491-bH
# T27 chain: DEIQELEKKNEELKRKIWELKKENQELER
# 4H48-bH = molecular target: T28, 4H48-bH
# T28 chain: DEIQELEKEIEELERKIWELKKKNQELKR
# 4H2944-bH = molecular target: T29, 4H2944-bH
# T29 chain: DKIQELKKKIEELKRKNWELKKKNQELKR
# 4H342-bH = molecular target: T30, 4H342-bH
# T30 chain: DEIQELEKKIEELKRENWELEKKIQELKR
# 4H2883-bH = molecular target: T31, 4H2883-bH
# T31 chain: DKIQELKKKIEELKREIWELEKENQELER
binder,measurement,setting,value
B1,interaction score,P6mSN,-1.04
same,interaction score,P5mSN,-1.2
same,interaction score,P7mSN,-0.807
same,interaction score,P9mSN,-2.15
same,interaction score,P1mSN,-1.32
same,interaction score,P8mSN,-2.51
same,interaction score,P12mSN,-0.695
same,interaction score,P4mSN,-1.35
same,interaction score,P3mSN,-1.72
same,interaction score,P2mSN,-1.65
B2,interaction score,4H687-bA,-0.587
same,interaction score,4H754-bA,-0.527
same,interaction score,4H967-bA,-0.986
same,interaction score,4H918-bA,-0.305
same,interaction score,4H72-bA,-0.657
same,interaction score,4H908-bA,-1.26
same,interaction score,4H850-bN,0.0841
same,interaction score,4H717-bA,-0.468
same,interaction score,4H607-bA,-1.48
same,interaction score,4H953-bA,-1.16
same,interaction score,4H797-bA,-0.352
same,interaction score,4H883-bA,1.54
same,interaction score,P5A-bA,-1.54
same,interaction score,4H568-bA,1.33
same,interaction score,O10-bS,-1.27
B3,interaction score,4H2937-bH,0.674
same,interaction score,4H491-bH,0.298
same,interaction score,4H48-bH,1.17
same,interaction score,4H2944-bH,0.783
same,interaction score,4H342-bH,-0.175
same,interaction score,4H2883-bH,1.73
